For orientation: Kd means the concentration at which binding is half-saturated. Higher therefore signals weaker binding.

For one molecule, Kd results are on record in patent publication US7105484 (Genentech, dated 2006).

This assay addresses T1, GDNFRα (full length, GPI-linked, expressed on cells) (rat, UniProt Q62997 25-430).
T1 construct: also called GDNF receptor α; recombinant GDNFRα
T1 sequence: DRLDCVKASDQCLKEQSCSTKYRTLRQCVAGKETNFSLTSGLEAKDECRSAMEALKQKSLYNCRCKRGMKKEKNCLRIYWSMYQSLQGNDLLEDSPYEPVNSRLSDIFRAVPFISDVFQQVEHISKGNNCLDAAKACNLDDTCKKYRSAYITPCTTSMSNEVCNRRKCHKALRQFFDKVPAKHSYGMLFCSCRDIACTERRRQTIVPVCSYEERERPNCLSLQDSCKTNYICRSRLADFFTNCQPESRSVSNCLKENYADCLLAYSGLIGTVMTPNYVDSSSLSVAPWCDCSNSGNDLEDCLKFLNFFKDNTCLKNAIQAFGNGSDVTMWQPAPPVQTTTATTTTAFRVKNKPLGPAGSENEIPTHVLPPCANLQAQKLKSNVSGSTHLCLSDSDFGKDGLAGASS
As to the kind of experiment: competition binding of 50 pM 125I GDNF against cold GDNF on CHO cells stably expressing GDNFRα; Scatchard analysis, IGOR program. An excerpt: Competition binding experiments further indicate that GDNF binds specifically and reversibly to GDNFRα expressing cells. […] The IGOR program was used to determine K_d.

B1: GDNF (Glial-cell Derived Neurotrophic Factor) (ligand)
chain: SPDKQMAVLPRRERNRQAAAANPENSRGKGRRGQRGKNRGCVLTAIHLNVTDLGLGYETKEELIFRYCSGSCDAAETTYDKILKNLSRNRRLVSDKVGQACCRPIAFDDDLSFLDDNLVYHILRKHSAKRCGCI
modifications: The tracer form is 125I-iodinated, and the iodinated residues are not stated. Per our card (not shown to me), active GDNF is a disulfide-bonded homodimer; one protomer is given.
Consider B1, for which the dissociation constant Kd is about 0.063 nM.
